# Laboratory results published in article PMC12052392 (PLOS Pathogens, 2025).
# T1: GST-fused truncated S2 protein S2 (D1139-L1152) (SARS-CoV-2, MN908947.3)
# T1 construct: not shown: GST, N-terminal, kept
# T1 chain: DPLQPELDSFKEEL
# T2: GST-fused truncated S2 protein S2 (P1140-D1153) (SARS-CoV-2, MN908947.3, UniProt P0DTC2)
# T2 construct: not shown: GST, N-terminal, kept
# T2 chain: PLQPELDSFKEELD
# T3: GST-fused truncated S2 protein S2 (L1141-L1152) (SARS-CoV-2 prototype (MN908947.3), UniProt P0DTC2)
# T3 construct: not shown: GST, N-terminal, kept
# T3 chain: LQPELDSFKEEL
# T4: GST-fused truncated S2 protein S2 (D1139-E1150) (SARS-CoV-2, MN908947.3, UniProt P0DTC2)
# T4 construct: not shown: GST, N-terminal, kept
# T4 chain: DPLQPELDSFKE
# T5: GST-fused truncated S2 protein S2 (P1140-L1152) (SARS-CoV-2 prototype (MN908947.3), UniProt P0DTC2)
# T5 construct: not shown: GST, N-terminal, kept
# T5 chain: PLQPELDSFKEEL
# T6: epitope SH-peptide (spanning residues D1139-D1153) (SARS-CoV-2 prototype, UniProt P0DTC2)
# T6 chain: DPLQPELDSFKEELD
# Assays:
# [1] = biological target: SARS-CoV-2 spike (S) protein, full-length, expressed on the surface of HEK-293T cells (SARS-CoV-2 prototype (MN908947.3), UniProt P0DTC2); experiment: flow cytometry on cells; conditions: one partner purified
# [2] = biological target: S2 (T1076-Q1208) protein as coated in ELISA (devoid of the His tag) (SARS-CoV-2, MN908947.3, UniProt P0DTC2); experiment: ELISA; […], room temperature; […]; conditions: both partners purified
# [3] = biological target: SARS-CoV-2 S2 (T1076-Q1208) antigen, trimeric S2 fusion-core-based antigen (SARS-CoV-2 prototype (MN908947.3), UniProt P0DTC2, biotin (Biotinylation Kit))
# [4] = biological target: SARS-CoV spike (S) protein expressed on HEK-293T cells (SARS-CoV, GenBank AY278554.2, UniProt P59594); experiment: flow cytometry on cells; conditions: one partner purified
# [5] = biological target: HKU3 spike (S) protein expressed on HEK-293T cells (Bat SARS-like coronavirus HKU3, GenBank …, UniProt A0A7G6UAJ9, strain); experiment: flow cytometry on cells; conditions: one partner purified
# [6] = biological target: WIV1 spike (S) protein expressed on HEK-293T cells (Bat SARS-like coronavirus WIV1 …, UniProt U5WI05, strain); experiment: flow cytometry on cells; conditions: one partner purified
# [7] = biological target: PANG/GD spike (S) protein expressed on HEK-293T cells (Pangolin coronavirus Guangdong …, strain); experiment: flow cytometry on cells; conditions: one partner purified
# [8] = biological target: T7, GST-fused truncated S2 protein S2 (T1076-H1159) (SARS-CoV-2 prototype (MN908947.3), UniProt P0DTC2); experiment: far-Western, overlay or dot blot; conditions: both partners purified
# T7 construct: not shown: GST, N-terminal, kept
# [9] = biological target: T1, GST-fused truncated S2 protein S2 …; experiment: ELISA; […], room temperature; […]; conditions: both partners purified
# [10] = biological target: T2, GST-fused truncated S2 protein S2 …; experiment: BLI; […]; 20 mM HEPES pH 7.4, 150 mM NaCl, 0.05% Tween-20; conditions: both partners purified
# [11] = biological target: T3, GST-fused truncated S2 protein S2 …; experiment: as above; conditions: both partners purified
# [12] = biological target: T4, GST-fused truncated S2 protein S2 …; experiment: as above; conditions: both partners purified
# [13] = biological target: T5, GST-fused truncated S2 protein S2 …; experiment: as above; conditions: both partners purified
# [14] = biological target: T6, epitope SH-peptide (spanning residues …); experiment: crystal structure; conditions: both partners purified
Binder,binding result [1],binding result [2],binding result [3],other results
"nanobody H68 (VHH, not shown: His6, C-terminal, kept) VHH: EVQVVESGGGLVQPGGSLRLSCVGSSFTLNAIGWFRQAPGKEREWVSCTTGDGSTNYPDSVKGRFTISRDNAKNTVYLQMNSLKPEDTAVYYCTAVRRCFLTTWTPINPYYGMHSWGKGTLVTVSS",binds,binds,,
H15 (VHH) VHH: QLQLVESGGALAQPGGSLTLSCAVRGATLDSYAIAWFREAPGEEREGVACIGGSEESTFMKYSLKDRVSLSTNRAEKMVYLHMNSLQPEDTAAYYCAASASGSRSVLAGCPSRTMGFWGKGTLVTVSS,,,binds,
"nanobody H145 (VHH, also called anti-SH nNb H145; not shown: His6, C-terminal, kept) VHH: QVQLVESGGGLVQTGGSLRLSCEASGSAFSSYAVNWYRQAPGKQREPVAAIGSFNTVYSDSVKGRFTISRDNAKNTVYLQMNSLKPEDTAVYICNARRGATNTWGQGTQVTVSS",binds,binds,,binding result [4]: binds; binding result [5]: binds; binding result [6]: binds; binding result [7]: binds; binding result [8]: binds; EC50 [9]: 2 nM; binding result [10]: no binding (tested: 200 nM); binding result [11]: no binding (tested: 200 nM); binding result [12]: binds; binding result [13]: no binding (tested: 200 nM); binding result [14]: binds
"nanobody H93 (VHH, not shown: His6, C-terminal, kept) VHH: QLQLVESGGGLVQPGGSLRLSCVVSGGTLDYHAIAWFRQAPGKVREGVLCISSSGGSTNWLEAVKGRFTISRDNAKNTVYLQMNSLKPEDTAVYYCAAVRRCFLTTWTPINPYYGMHSWGKGTLVTVSS",binds,binds,,
"nanobody H23 (VHH, not shown: His6, C-terminal, kept) VHH: EVQVVESGGGWVQAGGSRRLSCAASGFTLDSYAVGWFRQAPGKEREGVSCISGISSSGGTTNYVDSVKGRFTISRDNAKNTVYLQMNSLKPEDTAVYYCAAVRRCFLTTWTPINPYYGMHSWGKGTLVTVSS",,binds,,
"nanobody H84 (VHH, not shown: His6, C-terminal, kept) VHH: QLQLVESGGGWVQAGGSLRLSCAASGFTLDSYAVGWFRQAPGKEREGVSCISGISSSGGTTNYVDSVKGRFTISRDNAKNTAELQMNSLKPEDTAVYYCTAVRRCFLTTWTPINPYYGMHSWGKGTLVTVSS",,binds,,
H184 (VHH) VHH: QLQLVESGGGLVQPGGSLTLSCTASVDYYALGWFRQTPEKQREGVSCIGISGQRTFYADSVKGRFNITRDNTRKTAFLQMKDLKPEDTGVYFCAAERGRTVDAMCLKARPDYWGQGTQVTVSS,,,binds,
"nanobody H8 (VHH, not shown: His6, C-terminal, kept) VHH: QVQLVESGGGLVQTGGSLRLSCAVSRFTLDYGATGWFRQAPGKEREGVSCIGRDDGSTYYAESVKGRFTMSRDKAKNTVYLEMNSLKPEDTAVYYCAADYFARCAANLPNRYLYWGQGTQVTVSS",,binds,,
"nanobody H177 (VHH, not shown: His6, C-terminal, kept) VHH: QVQLVESGGGRVPPGGSLRLSCVASGFYWDYFVISWFRQAPGKEREWVSCIRSATDSANYADFVKGRFTISRENGKSTVYLQMNSLTPEDTAVYRCAVAYGTSWCRNPADMNYWGKGTLVTVSS",binds,binds,,
H43 (VHH) VHH: EVQVVESGGDLVQAGASLRLSCAAPEPVFISSFGNKYAFGWFRQAPGKQRELVASISGIGNTNYADSVNGRFTISRDNAKNSVYLQMNSLKPEDTAVYYCTAVRRCFLTTWTPINPYYGMHSWGKGTLVTVSS,,,binds,
"nanobody H88 (VHH, not shown: His6, C-terminal, kept) VHH: QVQLVESGGGLLQPGGSLRLSCAASGFTLDNYAIGWFRQAPGKEREWVSCISVSDGRTYYADSVQGRFTTSRDNAKNTVYLHLNSLKPEDTAVYSCASRRGRWCTTRSYEYEYWGQGTQVTVSS",,binds,,
"nanobody H49 (VHH, not shown: His6, C-terminal, kept) VHH: QLQLVESGGGSVQAGGSLRLACTTSGRTFNKYAMAWFRQPPGQEREFIASITWIGGSTYYANSAKGRFTISRDNAKNTAYLQMNSLKPDDTAVYQCQLRKGILSYWGQGTQVTVSS",binds,binds,,
H147 (VHH) VHH: QVQLVESGGAWVQPGGSLRLSCVASGFTLDYYAVGWFRQAPGKEREGVSCISRRGGESTNYASSVKGRFTISRDSVKNTVYLQMNSLKPEDTAVYYCAAVLRCFSTTWAPINPYYGMHSWGKGTLVTVSS,,,binds,
H27 (VHH) VHH: EVQVVESGGGLVQAGDSLTLSCVAVQGERFFSQYTVGWFRQAPGRERTLVATINYSRETYYSDSAKGRFTISRDNAKNTVYLQMNSLNPEDTATYYCAATRHARISTTITEDRYDYWGQGTQVTVSS,,,binds,
"nanobody H85 (VHH, not shown: His6, C-terminal, kept) VHH: QLQLVESGGGLVQAGGSLRLSCAASGSTISRHAMGWYRQAPGMQRELVASISSGGTTNYADSVKGRFTISRDSAKNMVYLHMTSLKPEDTAVYYCATKPVHMLTRRLHLGGCTYGMDYWGKGTLVTVSS",,binds,,
H36 (VHH) VHH: QVQLVESGGALVQPGGSLTLSCSGHGITLRHYTVGWFREAPGKRRQWISSIRSSDERTNYAASVKGRFIISRNDGENTVKLQLNDVGPEDMATYRCAAGADTIKVFSGWAADYMFWGQGTQVTVSS,,,binds,
H45 (VHH) VHH: QLQLVESGGGSVQSGGSLRLSCLATGRKLDDLVIKWFRQPPGKLREGVACISGSGRTIKYADSVKGRFIISNEYGKNTVYLQMNSLTPDDTAVYYCAAEQILCDRKWYPLGNDYYGQGTQVTVSS,,,binds,
H102 (VHH) VHH: QVQLVESGGGLVQPGGSLRLSCTGSGLSLEDYAIGWFRQAPGKDRNWVACIPHKREPLYRDYVRGRFTISRNNTANTVDLQMNSLKPEDTAVYYCTAVRRCFLTTWTPINPYYGMHSWGKGTLVTVSS,,,binds,
H6 (VHH) VHH: QVQLVESGGGLVEAGGSLRLSCTTSGGTLSPYTMGWFRQAPGKGREFVSGISCLGWHSYEGDSVKGRFTISRDNAKNTLYLQMNSLKPEDTAVYYCAASSGCSSTMIDADFTSWGQGTQVTVSS,,,binds,
"nanobody H58 (VHH, not shown: His6, C-terminal, kept) VHH: QLQLVESGGGLADDGGSLRLSCAASGFALRYWTVGWFRQAPGKEREGLACISRSGNITSYTDSAKGRFTISRDNAKNTVYLQMNSLKPEDTAVYYCTAVRRCFLTTWTPINPYYGMHSWGKGTLVTVSS",binds,binds,,
"nanobody H180 (VHH, not shown: His6, C-terminal, kept) VHH: QVQLVESGGGLVQAGGSLKLSCAASGLRSDGTAIGWFRQAPGKEREWVSCIRRRDGGTYYADSVESRFTISRDVAKNTVHLQMNSLKPEDTAVYYCASRDDSWCTTRSYEYSYWGQGTPVTVSS",binds,binds,,
